# B1: Protein PTHB1 (Homo sapiens), Q3SYG4 (parent)
# chain: MSLFKARDWWSTILGDKEEFDQGCLCLANVDNSGNGQDKIIVGSFMGYLRIFSPHPAKTGDGAQAEDLLLEVDLRDPVLQVEVGKFVSGTEMLHLAVLHSRKLCVYSVSGTLGNVEHGNQCQMKLMYEHNLQRTACNMTYGSFGGVKGRDLICIQSMDGMLMVFEQESYAFGRFLPGFLLPGPLAYSSRTDSFLTVSSCQQVESYKYQVLAFATDADKRQETEQQKLGSGKRLVVDWTLNIGEQALDICIVSFNQSASSVFVLGERNFFCLKDNGQIRFMKKLDWSPSCFLPYCSVSEGTINTLIGNHNNMLHIYQDVTLKWATQLPHIPVAVRVGCLHDLKGVIVTLSDDGHLQCSYLGTDPSLFQAPNVQSRELNYDELDVEMKELQKIIKDVNKSQGVWPMTEREDDLNVSVVVSPNFDSVSQATDVEVGTDLVPSVTVKVTLQNRVILQKAKLSVYVQPPLELTCDQFTFEFMTPDLTRTVSFSVYLKRSYTPSELEGNAVVSYSRPTDRNPDGIPRVIQCKFRLPLKLICLPGQPSKTASHKITIDTNKSPVSLLSLFPGFASQSDDDQVNVMGFHFLGGARITVLASKTSQRYRIQSEQFEDLWLITNELILRLQEYFEKQGVKDFACSFSGSIPLQEYFELIDHHFELRINGEKLEELLSERAVQFRAIQRRLLARFKDKTPAPLQHLDTLLDGTYKQVIALADAVEENQGNLFQSFTRLKSATHLVILLIALWQKLSADQVAILEAAFLPLQEDTQELGWEETVDAAISHLLKTCLSKSSKEQALNLNSQLNIPKDTSQLKKHITLLCDRLSKGGRLCLSTDAAAPQTMVMPGGCTTIPESDLEERSVEQDSTELFTNHRHLTAETPRPEVSPLQGVSE
# partner: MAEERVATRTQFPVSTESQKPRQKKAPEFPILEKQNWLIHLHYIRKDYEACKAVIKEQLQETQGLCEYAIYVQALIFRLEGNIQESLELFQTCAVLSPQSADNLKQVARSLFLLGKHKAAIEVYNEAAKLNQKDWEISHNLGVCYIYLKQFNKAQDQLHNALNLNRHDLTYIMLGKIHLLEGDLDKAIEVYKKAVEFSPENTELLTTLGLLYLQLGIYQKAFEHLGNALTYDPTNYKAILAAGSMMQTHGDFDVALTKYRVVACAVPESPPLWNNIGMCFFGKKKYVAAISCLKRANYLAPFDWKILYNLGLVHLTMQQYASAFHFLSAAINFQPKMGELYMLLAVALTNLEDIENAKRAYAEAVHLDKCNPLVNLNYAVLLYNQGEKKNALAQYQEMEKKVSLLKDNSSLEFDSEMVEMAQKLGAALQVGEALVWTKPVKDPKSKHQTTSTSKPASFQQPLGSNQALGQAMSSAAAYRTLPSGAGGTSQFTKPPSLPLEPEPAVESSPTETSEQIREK
# Variants of: B1
# Settings: with bbs4_human BBS4, Q96RK4
row,Variant,effect of a mutation on the interaction
1,K454A,with no effect
2,K454E,with no effect
3,T434E,with no effect
4,T434A,with no effect
5,T434K,with no effect
6,V417E,with no effect
7,V417K,with no effect
8,V417A,with no effect
9,T468K,with no effect
10,T468E,with no effect
11,T468A,with no effect
12,R449K,with no effect
13,R449A,with no effect
14,R449E,with no effect
15,D470K,with no effect
16,D470E,with no effect
17,D470A,with no effect
18,K443E,with no effect
19,K443A,with no effect
20,Q447K,with no effect
21,Q447A,with no effect
22,Q447E,with no effect
23,P463T,disrupting interaction strength

row,Variant,effect of a mutation on the interaction
1,P463E,with no effect
2,P463A,with no effect
3,P463K,with no effect
4,V416A,with no effect
5,V416E,with no effect
6,V416K,with no effect
7,V437A,with no effect
8,V437K,with no effect
9,V437E,with no effect
10,Q453A,with no effect
11,Q453K,with no effect
12,Q453E,with no effect
13,V461K,with no effect
14,V461A,with no effect
15,V461E,with no effect
16,L446A,with no effect
17,L446E,with no effect
18,L446K,with no effect
19,L457A,with no effect
20,L457K,with no effect
21,L457E,with no effect
22,V415K,with no effect
23,V415A,with no effect

row,Variant,effect of a mutation on the interaction
1,V415E,with no effect
2,F421A,with no effect
3,F421E,with no effect
4,F421K,with no effect
5,V413K,with no effect
6,V413E,with no effect
7,V413A,with no effect
8,T473A,with no effect
9,T473E,with no effect
10,L452S,disrupting interaction strength
11,L452A,with no effect
12,L452E,with no effect
13,L452K,with no effect
14,V444K,with no effect
15,V444I,disrupting interaction strength
16,V444E,with no effect
17,V444A,with no effect
18,V430A,with no effect
19,V430E,with no effect
20,V430K,with no effect
21,F472A,with no effect
22,F472K,with no effect
23,F472E,with no effect

row,Variant,effect of a mutation on the interaction
1,V432K,with no effect
2,V432E,with no effect
3,V432A,with no effect
4,C469E,with no effect
5,C469A,with no effect
6,C469K,with no effect
7,S423K,with no effect
8,S423E,with no effect
9,S423A,with no effect
10,L465E,disrupting interaction strength
11,L465A,with no effect
12,L465K,disrupting interaction strength
13,P464E,with no effect
14,P464A,with no effect
15,P464K,with no effect
16,E431A,with no effect
17,E431K,with no effect
18,P438A,with no effect
19,P438K,with no effect
20,P438E,with no effect
21,N412E,with no effect
22,N412K,with no effect
23,N412A,with no effect

row,Variant,effect of a mutation on the interaction
1,V450K,with no effect
2,V450M,disrupting interaction strength
3,V450A,with no effect
4,V450E,with no effect
5,E466A,with no effect
6,E466K,with no effect
7,Q426K,with no effect
8,Q426A,with no effect
9,Q426E,with no effect
10,T445E,with no effect
11,T445A,with no effect
12,T445K,with no effect
13,Y460A,with no effect
14,Y460K,with no effect
15,Y460E,with no effect
16,Q471K,with no effect
17,Q471A,with no effect
18,Q471E,with no effect
19,D435E,with no effect
20,D435K,with no effect
21,D435A,with no effect
22,V442E,with no effect
23,V442K,with no effect

row,Variant,effect of a mutation on the interaction
1,V442A,with no effect
2,S439E,with no effect
3,S439K,with no effect
4,S439A,with no effect
5,A427E,with no effect
6,A427K,with no effect
7,A455E,with no effect
8,A455K,with no effect
9,P419E,with no effect
10,P419A,with no effect
11,P419K,with no effect
12,S414A,with no effect
13,S414E,with no effect
14,S414K,with no effect
15,S418A,with no effect
16,S418K,with no effect
17,S418E,with no effect
18,I451E,with no effect
19,I451A,with no effect
20,I451K,with no effect
21,S458E,with no effect
22,S458A,with no effect
23,S458K,with no effect

row,Variant,effect of a mutation on the interaction
1,V440A,with no effect
2,V440K,disrupting interaction strength
3,V440E,with no effect
4,T428E,with no effect
5,T428A,with no effect
6,T428K,with no effect
7,V424A,with no effect
8,V424K,with no effect
9,V424E,with no effect
10,Q462K,with no effect
11,Q462A,with no effect
12,Q462E,with no effect
13,Q462T,disrupting interaction strength
14,G433E,with no effect
15,G433K,with no effect
16,G433A,with no effect
17,D429E,with no effect
18,D429K,with no effect
19,D429A,with no effect
20,L467A,with no effect
21,L467E,with no effect
22,L467K,with no effect
23,S425A,with no effect

row,Variant,effect of a mutation on the interaction
1,S425K,with no effect
2,S425E,with no effect
3,T441E,with no effect
4,T441K,with no effect
5,T441A,with no effect
6,V459A,disrupting interaction strength
7,V459K,with no effect
8,V459E,with no effect
9,K456E,with no effect
10,K456A,with no effect
11,N448K,with no effect
12,N448E,with no effect
13,N448A,with no effect
14,L436K,with no effect
15,L436A,with no effect
16,L436E,with no effect
17,N420E,with no effect
18,N420A,with no effect
19,N420K,with no effect
20,D422E,with no effect
21,D422A,with no effect
22,D422K,with no effect

# Reference: IntAct's records for PubMed 29039417
